Measurements published in paper PMC7367873, “Dissecting the sequence determinants for dephosphorylation by the catalytic subunits of phosphatases PP1 and PP2A” (Nature Communications, 2020).
Blank lines part the entries; values can stand above or below the molecule they belong to.

Key:
[1] = tested on: GFP-14-3-3β and its binding proteins; assay: GFP-14-3-3β co-IP with LC-MS/MS label-free quantification, untreated versus PP1c-treated; parameters: species or system human; details: label-free quantification, 3 replicates each
[2] = tested on: GFP-14-3-3β; assay: GFP-14-3-3β co-IP with LC-MS/MS, untreated GFP-14-3-3β versus GFP control (14-3-3 interactome); format: binding, human; details: label-free quantification, 3 replicates each
[3] = GFP-14-3-3β co-IP LC-MS/MS, PP1 vs untreated, student's t-test
[4] = GFP-14-3-3β co-IP LC-MS/MS, untreated vs GFP, student's t-test

B1: HNRNPC (protein, UniProt P07910 2-306, looked up)
Heterogeneous nuclear …: ASNVTNKTDPRSMNSRVFIGNLNTLVVKKSDVEAIFSKYGKIVGCSVHKGFAFVQYVNERNARAAVAGEDGRMIAGQVLDINLAAEPKVNRGKAGVKRSAAEMYGSVTEHPSPSPLLSSSFDLDYDFQRDYYDRMYSYPARVPPPPPIARAVVPSKRQRVSGNTSRRGKSGFNSKSGQRGSSKSGKLKGDDLQAIKKELTQIKQKVDSLLENLEKIEKEQSKQAVEMKNDKSEEEQSSSSVKKDETNVKMESEGGADDSAEEGDLLDDDDNEDRGDDQLELIKDDEKEAEEGEDDRDSANGEDDS
Difference (log2), PP1 vs untreated [1, 3]: -0.69 log2
Difference (log2), untreated vs GFP [2, 4]: 1.297 log2

B2: BRIX1 (protein, UniProt Q8TDN6 1-353, looked up)
Ribosome biogenesis protein …: MAATKRKRRGGFAVQAKKPKRNEIDAEPPAKRHATAEEVEEEERDRIPGPVCKGKWKNKERILIFSSRGINFRTRHLMQDLRMLMPHSKADTKMDRKDKLFVINEVCEMKNCNKCIYFEAKKKQDLYMWLSNSPHGPSAKFLVQNIHTLAELKMTGNCLKGSRPLLSFDPAFDELPHYALLKELLIQIFSTPRYHPKSQPFVDHVFTFTILDNRIWFRNFQIIEEDAALVEIGPRFVLNLIKIFQGSFGGPTLYENPHYQSPNMHRRVIRSITAAKYREKQQVKDVQKLRKKEPKTLLPHDPTADVFVTPAEEKPIEIQWVKPEPKVDLKARKKRIYKRQRKMKQRMDSGKTK
Difference (log2), PP1 vs untreated [1, 3]: -0.6423 log2
Difference (log2), untreated vs GFP [2, 4]: 1.65 log2

B3: BASP1 (protein, UniProt P80723 2-227, looked up)
Brain acid soluble protein 1: GGKLSKKKKGYNVNDEKAKEKDKKAEGAATEEEGTPKESEPQAAAEPAEAKEGKEKPDQDAEGKAEEKEGEKDAAAAKEEAPKAEPEKTEGAAEAKAEPPKAPEQEQAAPGPAAGGEAPKAAEAAAAPAESAAPAAGEEPSKEEGEPKKTEAPAAPAAQETKSDGAPASDSKPGSSEAAPSSKETPAATEAPSSTPKAQGPAASAEEPKPVEAPAANSDQTVTVKE
Difference (log2), PP1 vs untreated [1, 3]: -0.7159 log2
Difference (log2), untreated vs GFP [2, 4]: -1.2737 log2

B4: GNAS (protein, UniProt P63092 2-394, looked up)
Guanine nucleotide-binding …: GCLGNSKTEDQRNEEKAQREANKKIEKQLQKDKQVYRATHRLLLLGAGESGKSTIVKQMRILHVNGFNGEGGEEDPQAARSNSDGEKATKVQDIKNNLKEAIETIVAAMSNLVPPVELANPENQFRVDYILSVMNVPDFDFPPEFYEHAKALWEDEGVRACYERSNEYQLIDCAQYFLDKIDVIKQADYVPSDQDLLRCRVLTSGIFETKFQVDKVNFHMFDVGGQRDERRKWIQCFNDVTAIIFVVASSSYNMVIREDNQTNRLQEALNLFKSIWNNRWLRTISVILFLNKQDLLAEKVLAGKSKIEDYFPEFARYTTPEDATPEPGEDPRVTRAKYFIRDEFLRISTASGDGRHYCYPHFTCAVDTENIRRVFNDCRDIIQRMHLRQYELL
Difference (log2), PP1 vs untreated [1, 3]: -0.7154 log2
Difference (log2), untreated vs GFP [2, 4]: 0.1054 log2

B6: DCD (protein, UniProt P81605 20-110, looked up)
Dermcidin: YDPEAASAPGSGNPCHEASAAQKENAGEDPGLARQAPKPRKQRSSLLEKGLDGAKKAVGGLGKLGKDAVEDLESVGKGAVHDVKDVLDSVL
Difference (log2), PP1 vs untreated [1, 3]: -0.6713 log2
Difference (log2), untreated vs GFP [2, 4]: -1.7359 log2

Continued, in another order:

Difference (log2), PP1 vs untreated ([1]; log2 difference, pairwise comparison PP1 vs untreated): 1.6514
B5: VAPA (protein, UniProt Q9P0L0 2-249, looked up)
Vesicle-associated membrane …: ASASGAMAKHEQILVLDPPTDLKFKGPFTDVVTTNLKLRNPSDRKVCFKVKTTAPRRYCVRPNSGIIDPGSTVTVSVMLQPFDYDPNEKSKHKFMVQTIFAPPNTSDMEAVWKEAKPDELMDSKLRCVFEMPNENDKLNDMEPSKAVPLNASKQDGPMPKPHSVSLNDTETRKLMEECKRLQGEMMKLSEENRHLRDEGLRLRKVAHSDKPGSTSTASFRDNVTSPLPSLLVVIAAIFIGFFLGKFIL
Difference (log2), untreated vs GFP ([2]; log2 difference, pairwise comparison untreated vs GFP): -1.034

Difference (log2), PP1 vs untreated [1, 3]: -0.6831 log2
B7: SRPRB (protein, UniProt Q9Y5M8 1-271, looked up)
Signal recognition particle …: MASADSRRVADGGGAGGTFQPYLDTLRQELQQTDPTLLSVVVAVLAVLLTLVFWKLIRSRRSSQRAVLLVGLCDSGKTLLFVRLLTGLYRDTQTSITDSCAVYRVNNNRGNSLTLIDLPGHESLRLQFLERFKSSARAIVFVVDSAAFQREVKDVAEFLYQVLIDSMGLKNTPSFLIACNKQDIAMAKSAKLIQQQLEKELNTLRVTRSAAPSTLDSSSTAPAQLGKKGKEFEFSQLPLKVEFLECSAKGGRGDVGSADIQDLEKWLAKIA
Difference (log2), untreated vs GFP [2, 4]: 1.397 log2

Difference (log2), PP1 vs untreated [1, 3]: -0.5886 log2
B8: SPATS2 (protein, UniProt Q86XZ4 1-545, looked up)
Spermatogenesis-associated …: MSRKQNQKDSSGFIFDLQSNTVLAQGGAFENMKEKINAVRAIVPNKSNNEIILVLQHFDNCVDKTVQAFMEGSASEVLKEWTVTGKKKNKKKKNKPKPAAEPSNGIPDSSKSVSIQEEQSAPSSEKGGMNGYHVNGAINDTESVDSLSEGLETLSIDARELEDPESAMLDTLDRTGSMLQNGVSDFETKSLTMHSIHNSQQPRNAAKSLSRPTTETQFSNMGMEDVPLATSKKLSSNIEKSVKDLQRCTVSLARYRVVVKEEMDASIKKMKQAFAELESCLMDREVALLAEMDKVKAEAMEILLSRQKKAELLKKMTHVAVQMSEQQLVELRADIKHFVSERKYDEDLGRVARFTCDVETLKKSIDSFGQVSHPKNSYSTRSRCSSVTSVSLSSPSDASAASSSTCASPPSLTSANKKNFAPGETPAAIANSSGQPYQPLREVLPGNRRGGQGYRPQGQKSNDPMNQGRHDSMGRYRNSSWYSSGSRYQSAPSQAPGNTIERGQTHSAGTNGTGVSMEPSPPTPSFKKGLPQRKPRTSQTEAVNS
Difference (log2), untreated vs GFP [2, 4]: 1.275 log2

Difference (log2), PP1 vs untreated [1, 3]: -0.5793 log2
B9: MAP4 (protein, UniProt P27816 2-1152, looked up)
Microtubule-associated …: ADLSLADALTEPSPDIEGEIKRDFIATLEAEAFDDVVGETVGKTDYIPLLDVDEKTGNSESKKKPCSETSQIEDTPSSKPTLLANGGHGVEGSDTTGSPTEFLEEKMAYQEYPNSQNWPEDTNFCFQPEQVVDPIQTDPFKMYHDDDLADLVFPSSATADTSIFAGQNDPLKDSYGMSPCNTAVVPQGWSVEALNSPHSESFVSPEAVAEPPQPTAVPLELAKEIEMASEERPPAQALEIMMGLKTTDMAPSKETEMALAKDMALATKTEVALAKDMESPTKLDVTLAKDMQPSMESDMALVKDMELPTEKEVALVKDVRWPTETDVSSAKNVVLPTETEVAPAKDVTLLKETERASPIKMDLAPSKDMGPPKENKKETERASPIKMDLAPSKDMGPPKENKIVPAKDLVLLSEIEVAQANDIISSTEISSAEKVALSSETEVALARDMTLPPETNVILTKDKALPLEAEVAPVKDMAQLPETEIAPAKDVAPSTVKEVGLLKDMSPLSETEMALGKDVTPPPETEVVLIKNVCLPPEMEVALTEDQVPALKTEAPLAKDGVLTLANNVTPAKDVPPLSETEATPVPIKDMEIAQTQKGISEDSHLESLQDVGQSAAPTFMISPETVTGTGKKCSLPAEEDSVLEKLGERKPCNSQPSELSSETSGIARPEEGRPVVSGTGNDITTPPNKELPPSPEKKTKPLATTQPAKTSTSKAKTQPTSLPKQPAPTTIGGLNKKPMSLASGLVPAAPPKRPAVASARPSILPSKDVKPKPIADAKAPEKRASPSKPASAPASRSGSKSTQTVAKTTTAAAVASTGPSSRSPSTLLPKKPTAIKTEGKPAEVKKMTAKSVPADLSRPKSTSTSSMKKTTTLSGTAPAAGVVPSRVKATPMPSRPSTTPFIDKKPTSAKPSSTTPRLSRLATNTSAPDLKNVRSKVGSTENIKHQPGGGRAKVEKKTEAAATTRKPESNAVTKTAGPIASAQKQPAGKVQIVSKKVSYSHIQSKCGSKDNIKHVPGGGNVQIQNKKVDISKVSSKCGSKANIKHKPGGGDVKIESQKLNFKEKAQAKVGSLDNVGHLPAGGAVKTEGGGSEAPLCPGPPAGEEPAISEAAPEAGAPTSASGLNGHPTLSGGGDQREAQTLDSQIQETSI
Difference (log2), untreated vs GFP [2, 4]: 0.9373 log2
